# Results reported in the DeepSol protein solubility set.
# Experiment: soluble on expression in E. coli; label from the status in PepcDB or PDB records
row,Sequence,soluble on expression in E. coli
1,MTTCFCTGARSGPTVAISADLHQALRGIVAQRMATDPAHDLAHLDRVWVNVQAIASPGADRDVLLAASYLHDLVNLPKNAPDRHTASRRSADEAAPILRDLGFDEAQIAATGHAIAAHSFSAGISPESEEARILRDADRLDALGAIGIARNFSVSGSLGRALYDPADPFCERRTPDDALYSLDHWRVKLLSLPQGMLTDKGRALAEARIALMLRFLDDFAAEIGTPLPEGWTRGLEHHHHHH,soluble
2,MSLKPVKPPRINGRVPVLSAQEAVNYIPDEATLCVLGAGGGILEATTLITALADKYKQTQTPRNLSIISPTGLGDRADRGISPLAQEGLVKWALCGHWGQSPRISELAEQNKIIAYNYPQGVLTQTLRAAAAHQPGIISDIGIGTFVDPRQQGGKLNEVTKEDLIKLVEFDNKEYLYYKAIAPDIAFIRATTCDSEGYATFEDEVMYLDALVIAQAVHNNGGIVMMQVQKMVKKATLHPKSVRIPGYLVDIVVVDPDQTQLYGGAPVNRFISGDFTLDDSTKLSLPLNQRKLVARRALFEMRKGAVGNVGVGIADGIGLVAREEGCADDFILTVETGPIGGITSQGIAFGANVNTRAILDMTSQFDFYHGGGLDVCYLSFAEVDQHGNVGVHKFNGKIMGTGGFIDISATSKKIIFCGTLTAGSLKTEITDGKLNIVQEGRVKKFIRELPEITFSGKIALERGLDVRYITERAVFTLKEDGLHLIEIAPGVDLQKDILDKMDFTPVISPELKLMDERLFIDAAMGFVLPEAAHEGGSHHHHHH,soluble
3,MGSDKIHHHHHHMQPNPTLDQLQIFVAVADSGSFSAAGRKLNRAQSVISYGIANLEAQLGLKLFEREGTREPQLTEIGRSMLEDARRMIGVLQRMRSRVDGHHHGLEAEVALSVDAALPSPVLVRVLKAFEAQFPTVMLRLHIGSLGLIPDHVVSGQADLGIGGLLGDVDVHLVRIGFMSIVLAAAPSHPLALLPKPLAIEDVREHTQLVVTDQSERTKGRDFGVFAYRTWRLTDMRTKHMLMREGLGWGGLPRWLIADDLVNGRLVELDLEPFSEVKSPMFAMHRNDSSPKPAAAWLIERFKRGLGCFNEFEPGEVPEDEPETIRQSAP,not soluble
4,MSLTSLYTGTFVDTPTPAGLRVRRNHLLAVSAQGAIAHIAPVSDPASQALLASAPPPTALGRHSFFLPTYADLHLHAAQYLYAGTGLDLPLLEWLERYAYRAEERVDADEQLAERLYGRLVQRLRENGTGCVVFFGTIGVQANLILARKAQEAGIRAFIGKLSMDESPRPSYGEASPAASLSSLNSFLDSMESYLSQFPSHRRLVQPIITPRFVPVCSDELLQGLAKVAQDRNVRLQSHMCEGRDQIDMSLKTKGLDDEKVFDKFGLLGPQTLQAHVTYLDDKLIPLIKERGVTIAHCPLSNQYLSERQFPLREALDASLSLGLGTDIAGGYSPSIHTAMRQAVIISRMREGDRCESLGCSFGTVKKEEEGGGRNLRVDWKEAVWAATRGGKAGMGLGGALEVGMEFDVQLIELASEENPTGTGPLDLFDLADSQVDTDTDEWWFDALERWWSNGDERNRKGMWVQGAKIAEGHHHHHH,soluble
5,GSHMGGRLEGLTQDLRQLQESEQQLDHLMNICTTQLRLLSEDTDSQRLAYVTCQDLRSIADPAEQMVMVIKAPPETQLQAVDSSENFQISLKSKQGPIDVFLCPEE,soluble
6,MPRTHGYAPIGKRCHGKCNWHARGRINVIGALIGKCLLTVGLFKNNIDADTFLGWTIHDLLPKLPPASIVVMDNATFRKRQDIQNVITRGGHTLEYLPAYSPDLNPIEHKWAQTKAVRKQQNQTVEQLFKIESFYVTLEHHHHHH,soluble
7,SKLNERSVAHYALSDSPADHMGFLRTWGGPGTPPTPSGTGRRCWFVLKGNLLFSFESREGRAPLSLVVLEGCTVELAEAPVPEEFAFAICFDAPGVRPHLLAAEGPAAQEAWVKVLSRASFGYMRLVVRELESQLQDARQSLALQRRSSWKSVASRCKPQAPNHRAAGLENGHCLSKDSSPVGLVEEAGSRSAGWGLAEWELQGPASLLLGKGQSPVSPETSCFSTLHDWYGQEIVELRQCWQKRAQGSHSKCEEQDRP,soluble
8,MKMIIAIVQDQDSQELADQLVKNNFRATKLATTGGFLRAGNTTFLCGVNDDRVDEILSVINQTCGNREQLVSPITPMGGSADSYIPYPVEVEVGGATVFVMPVDAFHQF,not soluble
9,MESRYVLTGRYDSAPATDGSGTALGWTVAWKNNYRNAHSATTWSGQYVGGAEARINTQWLLTSGTTEANAWKSTLVGHDTFTKVKPSAASGGGSAEAGITGTWYNQLGSTFIVTAGADGALTGTYESA,soluble
